Measured values: the supplement of paper PMC9112550, “Optimization of the antimicrobial peptide Bac7 by deep mutational scanning” (BMC Biology, 2022)

System: Escherichia coli TOP10
Test: shrunken log2 fold change of peptide-encoding DNA abundance (4.5 h post-induction vs induction); higher = less antimicrobial activity (less host growth inhibition)
Conditions: time post-induction: 4.5 h; library: site-saturation at positions 5, 18, 19, 20
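Further: peptides expressed intracellularly from a pBAD plasmid library in pooled LB shake-flask culture, induced with 0.3% L-arabinose, DNA abundance read by NGS, three biological replicates, DESeq2 with apeglm shrinkage.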

| Sequence | shrunken log2 fold change |
| --- | --- |
| RRIRPRPPRLPRPRPRPPQWPRP | 0.403 |
| RRIRIRPPRLPRPRPRPSSNPRP | -0.313 |
| RRIRCRPPRLPRPRPRPFEKPRP | -0.0689 |
| RRIRARPPRLPRPRPRPVLHPRP | 0.288 |
| RRIRARPPRLPRPRPRPKMEPRP | 0.229 |
| RRIRTRPPRLPRPRPRPKEVPRP | -0.0117 |
| RRIRFRPPRLPRPRPRPVQRPRP | -0.072 |
| RRIRKRPPRLPRPRPRPNYRPRP | 0.123 |
| RRIRKRPPRLPRPRPRPMMWPRP | 0.373 |
| RRIRGRPPRLPRPRPRPIRDPRP | 0.0394 |
| RRIRHRPPRLPRPRPRPGAEPRP | 0.13 |
| RRIRDRPPRLPRPRPRPGGAPRP | 0.806 |
| RRIRWRPPRLPRPRPRPPHGPRP | 0.428 |
| RRIRDRPPRLPRPRPRPDFAPRP | 0.152 |
| RRIRRRPPRLPRPRPRPKLCPRP | 0.333 |
| RRIRNRPPRLPRPRPRPHSAPRP | -0.0468 |
| RRIRLRPPRLPRPRPRPFAGPRP | 0.024 |
| RRIRWRPPRLPRPRPRPKYTPRP | -0.315 |
| RRIRCRPPRLPRPRPRPCPYPRP | -0.215 |
| RRIRNRPPRLPRPRPRPSSLPRP | -0.333 |
| RRIRWRPPRLPRPRPRPCQKPRP | -0.00776 |
| RRIRKRPPRLPRPRPRPPKAPRP | 0.609 |
| RRIRYRPPRLPRPRPRPKIKPRP | -0.583 |
| RRIRPRPPRLPRPRPRPRGWPRP | 1.12 |
| RRIRLRPPRLPRPRPRPAFPPRP | 0.0371 |

| Sequence | shrunken log2 fold change |
| --- | --- |
| RRIRVRPPRLPRPRPRPSIGPRP | -0.197 |
| RRIRDRPPRLPRPRPRPNSIPRP | -0.211 |
| RRIRQRPPRLPRPRPRPEQRPRP | 0.0426 |
| RRIRWRPPRLPRPRPRPLALPRP | 0.362 |
| RRIRVRPPRLPRPRPRPASCPRP | -0.0873 |
| RRIRPRPPRLPRPRPRPDYLPRP | -0.259 |
| RRIRPRPPRLPRPRPRPHWLPRP | -0.0232 |
| RRIRTRPPRLPRPRPRPYEAPRP | -0.966 |
| RRIRSRPPRLPRPRPRPNMYPRP | -0.635 |
| RRIRTRPPRLPRPRPRPCMGPRP | -0.247 |
| RRIRDRPPRLPRPRPRPDAMPRP | -0.107 |
| RRIRERPPRLPRPRPRPNLQPRP | -0.208 |
| RRIRCRPPRLPRPRPRPDADPRP | 0.472 |
| RRIRERPPRLPRPRPRPQCWPRP | -0.0051 |
| RRIRIRPPRLPRPRPRPGMKPRP | -0.126 |
| RRIRCRPPRLPRPRPRPWMYPRP | -0.0169 |
| RRIRERPPRLPRPRPRPSFAPRP | -0.192 |
| RRIRMRPPRLPRPRPRPNWNPRP | 0.344 |
| RRIRFRPPRLPRPRPRPYDDPRP | -0.0579 |
| RRIRNRPPRLPRPRPRPVLPPRP | -0.11 |
| RRIRVRPPRLPRPRPRPDMRPRP | -0.437 |
| RRIRKRPPRLPRPRPRPAESPRP | 0.563 |
| RRIRQRPPRLPRPRPRPAYTPRP | 0.0569 |
| RRIRLRPPRLPRPRPRPSNTPRP | -0.624 |
| RRIRVRPPRLPRPRPRPDMEPRP | 0.0238 |

| Sequence | shrunken log2 fold change |
| --- | --- |
| RRIRYRPPRLPRPRPRPTANPRP | -0.602 |
| RRIRPRPPRLPRPRPRPYDAPRP | -0.0642 |
| RRIRHRPPRLPRPRPRPRHNPRP | -0.4 |
| RRIRKRPPRLPRPRPRPVVNPRP | 0.000998 |
| RRIRYRPPRLPRPRPRPADWPRP | 0.0899 |
| RRIRLRPPRLPRPRPRPWGTPRP | -0.169 |
| RRIRLRPPRLPRPRPRPLWNPRP | -0.228 |
| RRIRFRPPRLPRPRPRPQPCPRP | 0.078 |
| RRIRQRPPRLPRPRPRPIPYPRP | -0.0122 |
| RRIRGRPPRLPRPRPRPVRGPRP | 0.866 |
| RRIRIRPPRLPRPRPRPPTSPRP | -0.172 |
| RRIRYRPPRLPRPRPRPSTDPRP | -0.011 |
| RRIRVRPPRLPRPRPRPRHVPRP | 0.0785 |
| RRIRYRPPRLPRPRPRPYKWPRP | -0.169 |
| RRIRCRPPRLPRPRPRPRECPRP | -0.146 |
| RRIRNRPPRLPRPRPRPDRHPRP | 0.0343 |
| RRIRHRPPRLPRPRPRPHNCPRP | -0.0289 |
| RRIRHRPPRLPRPRPRPIWPPRP | 0.0213 |
| RRIRCRPPRLPRPRPRPSWDPRP | -0.134 |
| RRIRVRPPRLPRPRPRPQAPPRP | 0.167 |
| RRIRNRPPRLPRPRPRPFSCPRP | -0.03 |
| RRIRMRPPRLPRPRPRPGMPPRP | 0.522 |
| RRIRERPPRLPRPRPRPRGVPRP | 0.309 |
| RRIRFRPPRLPRPRPRPCGRPRP | 0.156 |
| RRIRMRPPRLPRPRPRPYMNPRP | -0.737 |

| Sequence | shrunken log2 fold change |
| --- | --- |
| RRIRSRPPRLPRPRPRPNQRPRP | 0.0415 |
| RRIRVRPPRLPRPRPRPGHEPRP | -0.0501 |
| RRIRPRPPRLPRPRPRPNFIPRP | -0.215 |
| RRIRTRPPRLPRPRPRPEETPRP | 0.0325 |
| RRIRHRPPRLPRPRPRPVLLPRP | -0.0673 |
| RRIRIRPPRLPRPRPRPHYQPRP | -0.463 |
| RRIRTRPPRLPRPRPRPGRHPRP | 0.0235 |
| RRIRMRPPRLPRPRPRPWTGPRP | -0.217 |
| RRIRCRPPRLPRPRPRPAFGPRP | 0.194 |
| RRIRKRPPRLPRPRPRPDEWPRP | 0.268 |
| RRIRYRPPRLPRPRPRPGNCPRP | -0.152 |
| RRIRWRPPRLPRPRPRPEYRPRP | 0.0624 |
| RRIRSRPPRLPRPRPRPVGWPRP | 0.839 |
| RRIRNRPPRLPRPRPRPEMLPRP | 0.0345 |
| RRIRERPPRLPRPRPRPVGDPRP | -0.0343 |
| RRIRSRPPRLPRPRPRPLYRPRP | -0.346 |
| RRIRGRPPRLPRPRPRPDMAPRP | 0.882 |
| RRIRSRPPRLPRPRPRPWFDPRP | -0.271 |
| RRIRFRPPRLPRPRPRPNFLPRP | -0.277 |
| RRIRWRPPRLPRPRPRPGCDPRP | 0.818 |
| RRIRDRPPRLPRPRPRPRPNPRP | 0.323 |
| RRIRDRPPRLPRPRPRPENPPRP | 0.783 |
| RRIRPRPPRLPRPRPRPCQKPRP | -0.00783 |
| RRIRWRPPRLPRPRPRPCICPRP | 0.16 |
| RRIRPRPPRLPRPRPRPLVCPRP | 0.272 |

| Sequence | shrunken log2 fold change |
| --- | --- |
| RRIRGRPPRLPRPRPRPSTAPRP | 0.926 |
| RRIRCRPPRLPRPRPRPFSPPRP | -0.181 |
| RRIRVRPPRLPRPRPRPAFWPRP | 2.56 |
| RRIRHRPPRLPRPRPRPDFYPRP | -0.609 |
| RRIRTRPPRLPRPRPRPIFWPRP | 0.85 |
| RRIRWRPPRLPRPRPRPGDEPRP | 0.0372 |
| RRIRERPPRLPRPRPRPDNNPRP | -0.237 |
| RRIRRRPPRLPRPRPRPFAWPRP | 0.189 |
| RRIRKRPPRLPRPRPRPYIMPRP | -0.153 |
| RRIRVRPPRLPRPRPRPGGSPRP | 0.0297 |
| RRIRPRPPRLPRPRPRPMITPRP | -0.407 |
| RRIRYRPPRLPRPRPRPSAMPRP | -0.0964 |
| RRIRQRPPRLPRPRPRPPQAPRP | 0.718 |
| RRIRSRPPRLPRPRPRPLVGPRP | 0.0355 |
| RRIRWRPPRLPRPRPRPKAFPRP | -0.0585 |
| RRIRKRPPRLPRPRPRPFKEPRP | -0.0549 |
| RRIRIRPPRLPRPRPRPDILPRP | -0.354 |
| RRIRMRPPRLPRPRPRPECMPRP | 2.53 |
| RRIRKRPPRLPRPRPRPQAIPRP | -0.0244 |
| RRIRNRPPRLPRPRPRPCTVPRP | -0.8 |
| RRIRFRPPRLPRPRPRPFYSPRP | -0.0734 |
| RRIRMRPPRLPRPRPRPRCHPRP | 0.133 |
| RRIRVRPPRLPRPRPRPRGFPRP | 0.26 |
| RRIRRRPPRLPRPRPRPCRRPRP | 0.0946 |
| RRIRGRPPRLPRPRPRPIDGPRP | 0.245 |
